± gives the standard deviation of the averaged measurements.
How the values were obtained:
MCF7 = assay: percentage of EdU-negative (G0-arrested) nuclei per well, 72 h; higher = more G0 arrest; conditions: reference: sequence is the full UniProt precursor, the tested protein was the secreted form or ectodomain
hTERT-HMEC = assay: as above; conditions: reference: sequence is the full UniProt precursor, the tested protein was the secreted form or ectodomain
[1] = protein concentration 0.0267275 µM
[2] = protein concentration 0.267275 µM
[3] = protein concentration 0.00625 µM
[4] = protein concentration 0.0625 µM
[5] = protein concentration 0.0225 µM
[6] = protein concentration 0.0055 µM
[7] = protein concentration 0.02225 µM
[8] = protein concentration 0.2225 µM
[9] = protein concentration 0.03125 µM
[10] = protein concentration 0.3125 µM
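Further: secreted proteins added to cultured cells, EdU pulse at the end, nuclei found by Hoechst imaging, EdU status from nuclear versus surrounding ring intensity ratio, PBS as neutral control.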

| Sequence | percentage of EdU-negative (MCF7; [5]) | percentage of EdU-negative (MCF7; protein concentration 0.225 µM) | percentage of EdU-negative (hTERT-HMEC; [5]) | percentage of EdU-negative (hTERT-HMEC; protein concentration 0.225 µM) | other results |
| --- | --- | --- | --- | --- | --- |
| MRLPWELLVLQSFILCLADDSTLHGPIFIQEPSPVMFPLDSEEKKVKLNCEVKGNPKPHIRWKLNGTDVDTGMDFRYSVVEGSLLINNPNKTQDAGTYQCTATNSFGTIVSREAKLQFAYLDNFKTRTRSTVSVRRGQGMVLLCGPPPHSGELSYAWIFNEYPSYQDNRRFVSQETGNLYIAKVEKSDVGNYTCVVTNTVTNHKVLGPPTPLILRNDGVMGEYEPKIEVQFPETVPTAKGATVKLECFALGNPVPTIIWRRADGKPIARKARRHKSNGILEIPNFQQEDAGLYECVAENSRGKNVARGQLTFYAQPNWIQKINDIHVAMEENVFWECKANGRPKPTYKWLKNGEPLLTRDRIQIEQGTLNITIVNLSDAGMYQCLAENKHGVIFSNAELSVIAVGPDFSRTLLKRVTLVKVGGEVVIECKPKASPKPVYTWKKGRDILKENERITISEDGNLRIINVTKSDAGSYTCIATNHFGTASSTGNLVVKDPTRVMVPPSSMDVTVGESIVLPCQVTHDHSLDIVFTWSFNGHLIDFDRDGDHFERVGGQDSAGDLMIRNIQLKHAGKYVCMVQTSVDRLSAAADLIVRGPPGPPEAVTIDEITDTTAQLSWRPGPDNHSPITMYVIQARTPFSVGWQAVSTVPELIDGKTFTATVVGLNPWVEYEFRTVAANVIGIGEPSRPSEKRRTEEALPEVTPANVSGGGGSKSELVITWETVPEELQNGRGFGYVVAFRPYGKMIWMLTVLASADASRYVFRNESVHPFSPFEVKVGVFNNKGEGPFSPTTVVYSAEEEPTKPPASIFARSLSATDIEVFWASPLEKNRGRIQGYEVKYWRHEDKEENARKIRTVGNQTSTKITNLKGSVLYHLAVKAYNSAGTGPSSATVNVTTRKPPPSQPPGNIIWNSSDSKIILNWDQVKALDNESEVKGYKVLYRWNRQSSTSVIETNKTSVELSLPFDEDYIIEIKPFSDGGDGSSSEQIRIPKISNAYARGSGASTSNACTLSAISTIMISLTARSSL [Q8IWV2] | – | – | – | – | percentage of EdU-negative (MCF7; protein concentration 0.018 µM): 25.6 ± 0.8%; percentage of EdU-negative (MCF7; protein concentration 0.18 µM): 27 ± 1.7%; percentage of EdU-negative (hTERT-HMEC; protein concentration 0.018 µM): 5.06 ± 0.29%; percentage of EdU-negative (hTERT-HMEC; protein concentration 0.18 µM): 8.55 ± 0.98% |
| MRLRRLALFPGVALLLAAARLAAASDVLELTDDNFESRISDTGSAGLMLVEFFAPWCGHCKRLAPEYEAAATRLKGIVPLAKVDCTANTNTCNKYGVSGYPTLKIFRDGEEAGAYDGPRTADGIVSHLKKQAGPASVPLRTEEEFKKFISDKDASIVGFFDDSFSEAHSEFLKAASNLRDNYRFAHTNVESLVNEYDDNGEGIILFRPSHLTNKFEDKTVAYTEQKMTSGKIKKFIQENIFGICPHMTEDNKDLIQGKDLLIAYYDVDYEKNAKGSNYWRNRVMMVAKKFLDAGHKLNFAVASRKTFSHELSDFGLESTAGEIPVVAIRTAKGEKFVMQEEFSRDGKALERFLQDYFDGNLKRYLKSEPIPESNDGPVKVVVAENFDEIVNNENKDVLIEFYAPWCGHCKNLEPKYKELGEKLSKDPNIVIAKMDATANDVPSPYEVRGFPTIYFSPANKKLNPKKYEGGRELSDFISYLQREATNPPVIQEEKPKKKKKAQEDL | – | – | – | – | percentage of EdU-negative (MCF7; [1]): 23.5 ± 0.4%; percentage of EdU-negative (MCF7; [2]): 26.1 ± 0.34%; percentage of EdU-negative (hTERT-HMEC; [1]): 5.82 ± 1%; percentage of EdU-negative (hTERT-HMEC; [2]): 5.84 ± 0.16% |
| MRLSPAPLKLSRTPALLALALPLAAALAFSDETLDKVPKSEGYCSRILRAQGTRREGYTEFSLRVEGDPDFYKPGTSYRVTLSAAPPSYFRGFTLIALRENREGDKEEDHAGTFQIIDEEETQFMSNCPVAVTESTPRRRTRIQVFWIAPPAGTGCVILKASIVQKRIIYFQDEGSLTKKLCEQDSTFDGVTDKPILDCCACGTAKYRLTFYGNWSEKTHPKDYPRRANHWSAIIGGSHSKNYVLWEYGGYASEGVKQVAELGSPVKMEEEIRQQSDEVLTVIKAKAQWPAWQPLNVRAAPSAEFSVDRTRHLMSFLTMMGPSPDWNVGLSAEDLCTKECGWVQKVVQDLIPWDAGTDSGVTYESPNKPTIPQEKIRPLTSLDHPQSPFYDPEGGSITQVARVVIERIARKGEQCNIVPDNVDDIVADLAPEEKDEDDTPETCIYSNWSPWSACSSSTCDKGKRMRQRMLKAQLDLSVPCPDTQDFQPCMGPGCSDEDGSTCTMSEWITWSPCSISCGMGMRSRERYVKQFPEDGSVCTLPTEETEKCTVNEECSPSSCLMTEWGEWDECSATCGMGMKKRHRMIKMNPADGSMCKAETSQAEKCMMPECHTIPCLLSPWSEWSDCSVTCGKGMRTRQRMLKSLAELGDCNEDLEQVEKCMLPECPIDCELTEWSQWSECNKSCGKGHVIRTRMIQMEPQFGGAPCPETVQRKKCRIRKCLRNPSIQKLRWREARESRRSEQLKEESEGEQFPGCRMRPWTAWSECTKLCGGGIQERYMTVKKRFKSSQFTSCKDKKEIRACNVHPC [Q9HCB6] | – | – | – | – | percentage of EdU-negative (MCF7; [3]): 24.6 ± 2.6%; percentage of EdU-negative (MCF7; [4]): 24.8 ± 1.8%; percentage of EdU-negative (hTERT-HMEC; [3]): 4.65 ± 0.17%; percentage of EdU-negative (hTERT-HMEC; [4]): 6.96 ± 0.65% |
| MRLSVRRVLLAAGCALVLVLAVQLGQQVLECRAVLAGLRSPRGAMRPEQEELVMVGTNHVEYRYGKAMPLIFVGGVPRSGTTLMRAMLDAHPEVRCGEETRIIPRVLAMRQAWSKSGREKLRLDEAGVTDEVLDAAMQAFILEVIAKHGEPARVLCNKDPFTLKSSVYLSRLFPNSKFLLMVRDGRASVHSMITRKVTIAGFDLSSYRDCLTKWNKAIEVMYAQCMEVGKEKCLPVYYEQLVLHPRRSLKLILDFLGIAWSDAVLHHEDLIGKPGGVSLSKIERSTDQVIKPVNLEALSKWTGHIPGDVVRDMAQIAPMLAQLGYDPYANPPNYGNPDPFVINNTQRVLKGDYKTPANLKGYFQVNQNSTSSHLGSS | 26.7 ± 0.75% | 30.1 ± 1.8% | 5.18 ± 0.23% | 36.4 ± 2.8% | – |
| MRLSWFRVLTVLSICLSAVATATGAEGKRKLQIGVKKRVDHCPIKSRKGDVLHMHYTGKLEDGTEFDSSLPQNQPFVFSLGTGQVIKGWDQGLLGMCEGEKRKLVIPSELGYGERGAPPKIPGGATLVFEVELLKIERRTEL | 25.5 ± 0.037% | 29.219 ± 0.017% | 4.9 ± 1.4% | 6.25 ± 0.1% | – |
| MRLTVLCAVCLLPGSLALPLPQEAGGMSELQWEQAQDYLKRFYLYDSETKNANSLEAKLKEMQKFFGLPITGMLNSRVIEIMQKPRCGVPDVAEYSLFPNSPKWTSKVVTYRIVSYTRDLPHITVDRLVSKALNMWGKEIPLHFRKVVWGTADIMIGFARGAHGDSYPFDGPGNTLAHAFAPGTGLGGDAHFDEDERWTDGSSLGINFLYAATHELGHSLGMGHSSDPNAVMYPTYGNGDPQNFKLSQDDIKGIQKLYGKRSNSRKK | – | – | – | – | percentage of EdU-negative (MCF7; [6]): 26.4 ± 1.6%; percentage of EdU-negative (MCF7; protein concentration 0.055 µM): 29.9 ± 0.45%; percentage of EdU-negative (hTERT-HMEC; [6]): 5.71 ± 0.72%; percentage of EdU-negative (hTERT-HMEC; protein concentration 0.055 µM): 15 ± 1.8% |
| MRMLLALLALSAARPSASAESHWCYEVQAESSNYPCLVPVKWGGNCQKDRQSPINIVTTKAKVDKKLGRFFFSGYDKKQTWTVQNNGHSVMMLLENKASISGGGLPAPYQAKQLHLHWSDLPYKGSEHSLDGEHFAMEMHIVHEKEKGTSRNVKEAQDPEDEIAVLAFLVEAGTQVNEGFQPLVEALSNIPKPEMSTTMAESSLLDLLPKEEKLRHYFRYLGSLTTPTCDEKVVWTVFREPIQLHREQILAFSQKLYYDKEQTVSMKDNVRPLQQLGQRTVIKSGAPGRPLPWALPALLGPMLACLLAGFLR | 24.9 ± 1.8% | 25.5 ± 1.3% | 5.11 ± 0.088% | 7.91 ± 0.34% | – |
| MRNSYRFLASSLSVVVSLLLIPEDVCEKIIGGNEVTPHSRPYMVLLSLDRKTICAGALIAKDWVLTAAHCNLNKRSQVILGAHSITREEPTKQIMLVKKEFPYPCYDPATREGDLKLLQLMEKAKINKYVTILHLPKKGDDVKPGTMCQVAGWGRTHNSASWSDTLREVNITIIDRKVCNDRNHYNFNPVIGMNMVCAGSLRGGRDSCNGDSGSPLLCEGVFRGVTSFGLENKCGDPRGPGVYILLSKKHLNWIIMTIKGAV | 27.7 ± 2.1% | 30.8 ± 3.2% | 5.3 ± 0.55% | 5.96 ± 1.8% | – |
| MRNWLVLLCPCVLGAALHLWLRLRSPPPACASGAGPADQLALFPQWKSTHYDVVVGVLSARNNHELRNVIRSTWMRHLLQHPTLSQRVLVKFIIGAHGCEVPVEDREDPYSCKLLNITNPVLNQEIEAFSLSEDTSSGLPEDRVVSVSFRVLYPIVITSLGVFYDANDVGFQRNITVKLYQAEQEEALFIARFSPPSCGVQVNKLWYKPVEQFILPESFEGTIVWESQDLHGLVSRNLHKVTVNDGGGVLRVITAGEGALPHEFLEGVEGVAGGFIYTIQEGDALLHNLHSRPQRLIDHIRNLHEEDALLKEESSIYDDIVFVDVVDTYRNVPAKLLNFYRWTVETTSFNLLLKTDDDCYIDLEAVFNRIVQKNLDGPNFWWGNFRLNWAVDRTGKWQELEYPSPAYPAFACGSGYVISKDIVKWLASNSGRLKTYQGEDVSMGIWMAAIGPKRYQDSLWLCEKTCETGMLSSPQYSPWELTELWKLKERCGDPCRCQAR [Q8NCR0] | – | – | – | – | percentage of EdU-negative (MCF7; [7]): 25.7 ± 4.8%; percentage of EdU-negative (MCF7; [8]): 29.39 ± 0.067%; percentage of EdU-negative (hTERT-HMEC; [7]): 5.56 ± 0.58%; percentage of EdU-negative (hTERT-HMEC; [8]): 11 ± 1% |
| MRPGAPGPLWPLPWGALAWAVGFVSSMGSGNPAPGGVCWLQQGQEATCSLVLQTDVTRAECCASGNIDTAWSNLTHPGNKINLLGFLGLVHCLPCKDSCDGVECGPGKACRMLGGRPRCECAPDCSGLPARLQVCGSDGATYRDECELRAARCRGHPDLSVMYRGRCRKSCEHVVCPRPQSCVVDQTGSAHCVVCRAAPCPVPSSPGQELCGNNNVTYISSCHMRQATCFLGRSIGVRHAGSCAGTPEEPPGGESAEEEENFV | – | – | – | – | percentage of EdU-negative (MCF7; [9]): 26 ± 2.5%; percentage of EdU-negative (MCF7; [10]): 24.7 ± 3.3%; percentage of EdU-negative (hTERT-HMEC; [9]): 4.24 ± 0.09%; percentage of EdU-negative (hTERT-HMEC; [10]): 4.84 ± 0.11% |
| MRPLAGGLLKVVFVVFASLCAWYSGYLLAELIPDAPLSSAAYSIRSIGERPVLKAPVPKRQKCDHWTPCPSDTYAYRLLSGGGRSKYAKICFEDNLLMGEQLGNVARGINIAIVNYVTGNVTATRCFDMYEGDNSGPMTKFIQSAAPKSLLFMVTYDDGSTRLNNDAKNAIEALGSKEIRNMKFRSSWVFIAAKGLELPSEIQREKINHSDAKNNRYSGWPAEIQIEGCIPKERS | 27.2 ± 0.94% | 24.7 ± 0.92% | 4.35 ± 0.59% | 6.31 ± 1.2% | – |
| MRPLLCALTGLALLRAAGSLAAAEPFSPPRGDSAQSTACDRHMAVQRRLDVMEEMVEKTVDHLGTEVKGLLGLLEELAWNLPPGPFSPAPDLLGDGF [Q5JTB6] | 28.1 ± 2.1% | 26 ± 1.2% | 4.3 ± 0.46% | 5.25 ± 0.17% | – |

From the supplement of paper PMC11316812
